Assay results: US20110177071A1 (PERSEID THERAPEUTICS, published 2011)

T1: full-length human CD86 on HEK293 cells (human, UniProt P42081 24-329)
T1 sequence: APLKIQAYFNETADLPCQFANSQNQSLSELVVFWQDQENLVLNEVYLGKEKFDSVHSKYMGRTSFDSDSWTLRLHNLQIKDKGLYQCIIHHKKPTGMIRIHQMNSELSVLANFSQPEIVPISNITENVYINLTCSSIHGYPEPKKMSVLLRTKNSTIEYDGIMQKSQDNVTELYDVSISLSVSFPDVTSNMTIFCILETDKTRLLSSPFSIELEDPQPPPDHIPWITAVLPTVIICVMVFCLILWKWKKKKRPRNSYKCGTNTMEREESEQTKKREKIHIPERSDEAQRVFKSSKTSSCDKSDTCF

T2: human CD86-murine Ig fusion protein (human)
T2 construct: Bought (Ancell #509-820); also called hCD86-mIg
T2 chain: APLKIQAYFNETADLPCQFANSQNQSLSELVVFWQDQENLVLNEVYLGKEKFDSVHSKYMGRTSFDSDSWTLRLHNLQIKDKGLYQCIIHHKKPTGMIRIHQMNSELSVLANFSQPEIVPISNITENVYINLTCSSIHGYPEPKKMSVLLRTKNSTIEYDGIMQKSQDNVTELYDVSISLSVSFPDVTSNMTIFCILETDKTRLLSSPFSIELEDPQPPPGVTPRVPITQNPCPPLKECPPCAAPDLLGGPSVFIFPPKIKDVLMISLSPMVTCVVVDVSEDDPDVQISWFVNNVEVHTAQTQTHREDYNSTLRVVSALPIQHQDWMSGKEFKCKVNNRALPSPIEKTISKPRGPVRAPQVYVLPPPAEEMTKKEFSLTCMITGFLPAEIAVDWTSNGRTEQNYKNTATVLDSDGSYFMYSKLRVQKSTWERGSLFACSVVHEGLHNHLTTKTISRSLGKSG

T3: human CD80-murine Ig fusion protein (human)
T3 construct: Bought (Ancell #510-820); also called hCD80-mIg; human CD80-murine IgG
T3 chain: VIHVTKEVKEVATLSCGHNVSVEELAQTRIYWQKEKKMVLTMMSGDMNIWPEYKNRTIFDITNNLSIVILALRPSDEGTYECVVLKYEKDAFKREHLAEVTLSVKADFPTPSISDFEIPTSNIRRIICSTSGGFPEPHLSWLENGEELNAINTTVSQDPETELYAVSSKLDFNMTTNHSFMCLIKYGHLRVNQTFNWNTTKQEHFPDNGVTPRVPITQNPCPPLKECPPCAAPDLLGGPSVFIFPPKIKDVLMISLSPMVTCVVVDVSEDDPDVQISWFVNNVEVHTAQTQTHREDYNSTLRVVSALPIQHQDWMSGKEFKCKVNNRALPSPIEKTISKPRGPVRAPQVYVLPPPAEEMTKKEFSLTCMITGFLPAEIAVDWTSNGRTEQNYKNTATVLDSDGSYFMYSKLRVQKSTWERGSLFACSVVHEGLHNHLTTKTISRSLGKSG


How the values were obtained:
[1] = molecular target: T1, full-length human CD86 on HEK293 cells; assay: cell-based or functional assay
[2] = molecular target: T2, human CD86-murine Ig fusion protein; assay: SPR Biacore, hCD86-mIg captured
Protocol: (§1) All Biacore™ analyses were performed on a Biacore™ 2000 system (GE Healthcare) at room temperature (RT, 25° C.). HBS-EP buffer (10 mM HEPES (pH 7.4), 150 mM NaCl, 3 mM EDTA, 0.005% surfactant P20) was used as the flow buffer for all experiments.
(§2) Rabbit anti-mouse IgG antibody (GE Healthcare, #BR-1005-14) was immobilized on CM5 sensor chips (GE Healthcare, #BR-1000-14) according to the manufacturer's protocol. Antibody was diluted to 30 μg/ml in immobilization buffer (10 mM sodium acetate, pH 5.0 (BR-1003-51)). At a flow rate of 5 μl/minute, sensor chip CM5 was activated with a 35 μl injection of a mixture of 1-Ethyl-3-[3-dimethylaminopropyl]carbodiimide hydrochloride (EDC) and N-hydroxysuccinimide (NHS) (made by mixing equal volumes of 11.5 mg/ml EDC and 75 mg/ml NHS) (GE Healthcare, #BR-1000-50), followed by a 35 μl injection of undiluted antibody. Un-reacted sites were quenched with 35 μl of 1M ethanolamine-HCL, pH 8.5 (GE Healthcare, #BR-1000-50). […] CTLA-4 ligands human CD80-murine Ig (hCD80-mIg) (Ancell, #510-820) or human CD86-murine Ig (hCD86-mIg) (Ancell, #509-820) were bound to antibody-coated sensor chips by injection of 10 μl or 16 μl, respectively, ligand solution (2 μg/ml protein in HBS-EP buffer [10 mM HEPES pH 7.4, 150 mM NaCl, 3 mM EDTA, 0.005% (v/v) surfactant P-20, GE Healthcare, #BR-1001-88]) at a flow rate of 10 μl/min.

[3] = molecular target: T3, human CD80-murine Ig fusion protein; assay: SPR Biacore, hCD80-mIg captured
Protocol: as §1, §2

Row | Binder | Mean IC50 (nM), CD4+ T cell proliferation [1] | Kd [2] | Binding Avidity (Relative to Orencia) [3] | Kd [3] | Binding Avidity (Relative to Orencia) [2]
1 | D2-IgG2 (Fc fusion) MHVAQPAVVLASSRGIASFVCEYESPHKANEIRVTVLRQANSQVTEVCAMTYMKGDELTFLDDPFCTGTFSGNQVNLTIQGLRAADTGLYICKVELMYPPPYYLGMGNGTQIYVIDPEPCPDSDERKCCVECPPCPAPPVAGPSVFLFPPKPKDTLMISRTPEVTCVVVDVSHEDPEVQFNWYVDGVEVHNAKTKPREEQFNSTFRVVSVLTVVHQDWLNGKEYKCKVSNKGLPAPIEKTISKTKGQPREPQVYTLPPSREEMTKNQVSLTCLVKGFYPSDIAVEWESNGQPENNYKTTPPMLDSDGSFFLYSKLTVDKSRWQQGNVFSCSVMHEALHNHYTQKSLSLSPG | 0.03 nM | 0.131 to 0.262 nM | > 2 fold | < 0.439 nM | 
2 | D3-2-IgG2 (Fc fusion, also called D3-02-IgG2; D3-02) MHVAQPAVVLASSRGIASFVCEYESPGKATEIRVTVLRQAGSQVTEVCAMTYMKGDELTFLDDPSCTGTFSGNQVNLTIQGLRAADTGLYICKVELMYPPPYYLGFGNGTQIYVIDPEPCPDSDERKCCVECPPCPAPPVAGPSVFLFPPKPKDTLMISRTPEVTCVVVDVSHEDPEVQFNWYVDGVEVHNAKTKPREEQFNSTFRVVSVLTVVHQDWLNGKEYKCKVSNKGLPAPIEKTISKTKGQPREPQVYTLPPSREEMTKNQVSLTCLVKGFYPSDIAVEWESNGQPENNYKTTPPMLDSDGSFFLYSKLTVDKSRWQQGNVFSCSVMHEALHNHYTQKSLSLSPG | 0.03 nM | 0.131 to 0.262 nM |  | 0.439 to 1.75 nM | 
3 | D3-34-IgG2 (Fc fusion) MHVAQPAVVLASSRGIASFVCEYASPGKANEVRVTVLRQADSQVTEVCAMTYMKGNELTFLDDPSCTGTFSGNQVNLTIQGLRAMDTGLYICKVELMYPPPYYLGIGNGTQIYVIDPEPCPDSDERKCCVECPPCPAPPVAGPSVFLFPPKPKDTLMISRTPEVTCVVVDVSHEDPEVQFNWYVDGVEVHNAKTKPREEQFNSTFRVVSVLTVVHQDWLNGKEYKCKVSNKGLPAPIEKTISKTKGQPREPQVYTLPPSREEMTKNQVSLTCLVKGFYPSDIAVEWESNGQPENNYKTTPPMLDSDGSFFLYSKLTVDKSRWQQGNVFSCSVMHEALHNHYTQKSLSLSPG | 0.05 nM | 0.131 to 0.262 nM |  | 0.439 to 1.75 nM | 
4 | D3-50-IgG2 (Fc fusion) MHVAQPAVVLASSRGIASFVCEYASPGKANEVRVTVLRQADSQVTEVCAMTYMKGDELTFLDDPICTGTFSGNQVNLTIQGLRAMDTGLYICKVELMYPPPYYLGIGNGTQIYVIDPEPCPDSDERKCCVECPPCPAPPVAGPSVFLFPPKPKDTLMISRTPEVTCVVVDVSHEDPEVQFNWYVDGVEVHNAKTKPREEQFNSTFRVVSVLTVVHQDWLNGKEYKCKVSNKGLPAPIEKTISKTKGQPREPQVYTLPPSREEMTKNQVSLTCLVKGFYPSDIAVEWESNGQPENNYKTTPPMLDSDGSFFLYSKLTVDKSRWQQGNVFSCSVMHEALHNHYTQKSLSLSPG | 0.06 nM | 0.131 to 0.262 nM |  | 0.439 to 1.75 nM | 

Results, then the binder that gave them:

Row | Mean IC50 (nM), CD4+ T cell proliferation [1] | Kd [2] | Binding Avidity (Relative to Orencia) [3] | Kd [3] | Binding Avidity (Relative to Orencia) [2] | Binder
5 | 0.05 nM | 0.262 to 0.523 nM |  | 0.439 to 1.75 nM |  | D3-39-IgG2 (Fc fusion) MHVAQPAVVLASSRGIASFVCEYESPGKANEVRVTVLRQADSQVTEVCAMTYMKGNELTFLDDPICTGTFSGNQVNLTIQGLRAMDTGLYICKVELMYPPPYYLGIGNGTQIYVIDPEPCPDSDERKCCVECPPCPAPPVAGPSVFLFPPKPKDTLMISRTPEVTCVVVDVSHEDPEVQFNWYVDGVEVHNAKTKPREEQFNSTFRVVSVLTVVHQDWLNGKEYKCKVSNKGLPAPIEKTISKTKGQPREPQVYTLPPSREEMTKNQVSLTCLVKGFYPSDIAVEWESNGQPENNYKTTPPMLDSDGSFFLYSKLTVDKSRWQQGNVFSCSVMHEALHNHYTQKSLSLSPG
6 | 0.02 nM | < 0.131 nM |  | 0.439 to 1.75 nM | > 40 fold | D3-15-IgG2 (Fc fusion) MHVAQPAVVLASSRGIASFVCEYESPGKANEIRVTVLRQADSQVTEVCAMTYMKGDELTFLDDPSCTGTFSGNQVNLTIQGLRAMDTGLYICKVELMYPPPYYLGFGNGTQIYVIDPEPCPDSDERKCCVECPPCPAPPVAGPSVFLFPPKPKDTLMISRTPEVTCVVVDVSHEDPEVQFNWYVDGVEVHNAKTKPREEQFNSTFRVVSVLTVVHQDWLNGKEYKCKVSNKGLPAPIEKTISKTKGQPREPQVYTLPPSREEMTKNQVSLTCLVKGFYPSDIAVEWESNGQPENNYKTTPPMLDSDGSFFLYSKLTVDKSRWQQGNVFSCSVMHEALHNHYTQKSLSLSPG
7 | 0.04 nM | 0.131 to 0.262 nM |  | 0.439 to 1.75 nM |  | D3-3-IgG2 (Fc fusion, also called D3-03-IgG2) MHVAQPAVVLASSRGIASFVCEYESPGKANEVRVTVLRQAGSQVTEVCAMTYMKGDELTFLDDPSCTGTFSGNQVNLTIQGLRAADTGLYICKVELMYPPPYYLGFGNGTQIYVIDPEPCPDSDERKCCVECPPCPAPPVAGPSVFLFPPKPKDTLMISRTPEVTCVVVDVSHEDPEVQFNWYVDGVEVHNAKTKPREEQFNSTFRVVSVLTVVHQDWLNGKEYKCKVSNKGLPAPIEKTISKTKGQPREPQVYTLPPSREEMTKNQVSLTCLVKGFYPSDIAVEWESNGQPENNYKTTPPMLDSDGSFFLYSKLTVDKSRWQQGNVFSCSVMHEALHNHYTQKSLSLSPG
8 | 0.07 nM | 0.262 to 0.523 nM |  | 0.439 to 1.75 nM |  | D3-52-IgG2 (Fc fusion) MHVAQPAVVLASSRGIASFVCEYASPGKANEIRVTVLRQADSQVTEVCAMTYMKGNELTFLDDPICTGTFSGNQVNLTIQGLRAMDTGLYICKVELMYPPPYYLGIGNGTQIYVIDPEPCPDSDERKCCVECPPCPAPPVAGPSVFLFPPKPKDTLMISRTPEVTCVVVDVSHEDPEVQFNWYVDGVEVHNAKTKPREEQFNSTFRVVSVLTVVHQDWLNGKEYKCKVSNKGLPAPIEKTISKTKGQPREPQVYTLPPSREEMTKNQVSLTCLVKGFYPSDIAVEWESNGQPENNYKTTPPMLDSDGSFFLYSKLTVDKSRWQQGNVFSCSVMHEALHNHYTQKSLSLSPG
9 | 0.05 nM | 0.131 to 0.262 nM |  | 0.439 to 1.75 nM |  | D3-6-IgG2 (Fc fusion, also called D3-06-IgG2) MHVAQPAVVLASSRGIASFVCEYESPGKANEIRVTVLRQAGSQVTEVCAMTYMMGDELTFLDDPSCTGTFSGNQVNLTIQGLRAADTGLYICKVELMYPPPYYLGFGNGTQIYVIDPEPCPDSDERKCCVECPPCPAPPVAGPSVFLFPPKPKDTLMISRTPEVTCVVVDVSHEDPEVQFNWYVDGVEVHNAKTKPREEQFNSTFRVVSVLTVVHQDWLNGKEYKCKVSNKGLPAPIEKTISKTKGQPREPQVYTLPPSREEMTKNQVSLTCLVKGFYPSDIAVEWESNGQPENNYKTTPPMLDSDGSFFLYSKLTVDKSRWQQGNVFSCSVMHEALHNHYTQKSLSLSPG
